B1: MTMR15 (parent)
chain: FSPDFTLRNTLKSTSEDSLVKQEC
B2: RIPK4 (parent)
chain: RERMELLEEAKKMEMAKFRYILPV

Variants of: B1
Experiment: protein stability index of a GFP-peptide fusion (GPS, HEK-293T) (PSI 1-6); higher = more stable
Settings: c terminus: a fixed tail appended
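Also: lentivirally expressed fusions sorted by FACS into six bins by GFP to DsRed ratio, PSI derived from sequencing read proportions per bin multiplied by bin number.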

Protein stability index, by site and new letter:
S13: M 2.02; H 2.42; I 2.56; C 2.08; D 2.02; A 1.9; P 2.12; T 1.53; N 2.69; L 1.83; E 2.11; R 3.03; Q 2.31; V 1.97; Y 2.35; W 2.66; G 1.81; K 1.58; F 2.13
L7: F 2.04; P 2.54; K 2.39; E 2.99; I 2.3; N 1.91; H 2.15; A 1.99; M 3.06; C 2.25; S 2.08; R 2.56; V 1.83; D 3.03; Y 2.27; G 2.48; W 2.16; T 2.75; Q 2.16
S2: M 3.69; F 4.04; P 2.9; E 4.8; I 1.92; Q 3.32; Y 4.52; W 3.6; V 2.88; G 2.48; T 2.23; H 2.55; C 2.19; N 3.68; K 4.27; A 2.08; D 5; R 4.02; L 3.19
R8: M 1.77; D 2.68; K 1.7; P 2.67; H 1.89; W 2.17; Q 2.62; T 1.73; A 2.01; N 1.58; E 3.28; S 1.9; Y 2.44; L 2.36; G 1.79; I 2.88; C 2.75; V 2.14; F 1.89
K12: C 2.34; A 1.79; V 2.14; D 2.27; M 1.81; T 1.67; I 2.6; N 1.41; E 2.67; G 2.24; W 3.33; F 2.03; S 2.04; L 2.28; R 1.71; Q 1.92; Y 2.38; H 1.71; P 1.77
F1: M 4.87; D 5.25; H 4.96; L 5.21; P 5.1; I 4.71; K 5; A 3.9; V 4.83; R 4.98; Y 2.04; N 5.19; T 5.28; Q 4.96; S 4.81; G 5.09; W 4.39; E 5.32; C 4.17
T10: K 1.72; M 2.11; D 1.99; P 1.7; S 1.82; V 1.76; R 2.15; H 3.86; W 2.32; E 2.37; Q 1.59; N 1.87; I 2.64; F 2.7; L 2.61; Y 2.27; C 2.14; G 2.03; A 2.16
D17: A 1.89
T14: N 2.11; C 2.78; W 1.58; H 1.96; S 2.1; E 2.64; G 2.49; F 2.82; P 1.69; M 2.05; V 2.43; A 1.54; K 1.73; Q 2.31; Y 1.72; R 1.77; I 1.62; D 2.1; L 2
L11: A 1.57; I 2.83; C 2.42; P 2.11; F 2.47; S 2.04; Y 1.75; V 2.26; G 2.11; N 1.94; T 1.81; M 2.31; H 1.76; E 2.25; R 1.81; Q 2.06; K 2; D 2.25; W 1.81
E16: P 2.38; V 2.68; H 2.25; D 2.54; S 2.1; A 1.67; K 1.75; C 1.98; Y 1.83; F 2.48; M 2.29; I 1.91; L 1.75; T 1.57; R 1.76; Q 2.41; G 1.93; N 1.93; W 2.38
F5: G 1.99; W 3.6; H 3.52; P 3.59; D 4.35; A 3.75; T 3.17; N 3.82; K 3.79; R 3.26; S 3.19; L 3.54; Q 3.5; Y 2.61; C 3.42; E 4.83; M 3.62; I 3.65; V 3.56
S15: Y 1.83; N 1.43; I 1.73; W 2.02; G 2.33; L 1.96; T 1.85; H 1.93; F 2.63; Q 1.84; D 1.95; C 2.71; V 1.48; K 1.73; A 1.64; E 1.82; R 2.34; P 1.83; M 1.99
D4: A 2.44; R 2.65; W 1.96; H 1.95; E 1.94; F 1.53; L 1.94; T 2.07; C 1.78; N 2.23; M 1.61; G 2.65; I 2.05; P 4; S 1.9; Y 3.03; Q 1.45; V 2.01; K 2.23
T6: M 1.92; R 1.77; S 2.27; P 1.92; L 2.8; D 2.7; C 2.73; V 1.82; E 3.39; F 1.84; Q 2.24; N 1.77; Y 2.46; K 2.01; W 1.84; H 1.45; I 3.13; G 2.63; A 1.72
P3: M 1.99; H 3.05; W 1.97; N 3.08; F 2.83; Y 2.76; I 2.44; C 2.64; L 2.24; S 2.67; A 1.97; E 3.14; K 2.26; T 2.76; Q 2.83; G 2.27; D 3.91; V 2.58; R 1.98
N9: I 2.41; L 2.02; A 1.67; M 2.64; Q 1.96; F 2.7; K 2.11; H 1.57; S 2.34; G 1.93; W 2.62; R 2.62; Y 3.7; V 2.18; T 2.09; P 1.82; C 2.35; E 1.72; D 1.54

Variants of: B2
Experiment: as above
Settings: c terminus: a fixed tail appended

Protein stability index, by site and new letter:
P23: C 3.02; G 1.95; N 1.63; I 2.09; R 3.69; K 1.83; D 2.03; H 2.9; V 2.29; Q 1.69; E 2.7; S 3.96; M 2
V24: M 3.68; E 4.32; R 3.65; F 3.16; D 3.64; K 3.58; T 3.78; H 3.24; S 3.7
L22: S 3.28; W 2.53; R 4.07; P 4.95; N 3.07; Q 3.69; M 3.57

— the supplement of paper PMC10567573
